Assay results as given in patent publication US20120276114A1, “IFN-GAMMA INHIBITORS IN THE TREATMENT OF MOTONEURON DISEASES” (UNIVERSITE D'AIX-MARSEILLE, priority 2009, published 2012).

Columns and labels:
LIGHT = test: expression levels of LIGHT in motoneurons exposed to IFNγ; assay type: cell-based, mouse
Method: Neurons were plated at the density of 20,000 cells/cm^2 in 6-cm diameter dishes containing corresponding complemented Neurobasal medium (see above). Sodium dodecyl sulfate polyacrylamide gel electrophoresis (SDS-PAGE) and Western blotting were carried out on neurons, astrocytes (duplicates) and dissected lumbar spinal cords using protocol previously described in Raoul et al., 2005, above. Primary antibodies were anti-LT-βR (sc-8377, Santa Cruz Biotechnology, 1:500), anti-LIGHT (sc-28880, Santa Cruz Biotechnology, 1:500), anti-IFNγ (sc-52557, Santa Cruz Biotechnology, 1:500), anti-IFNγR1 (559911, BD Biosciences, 1:500), anti-IFNγR2 (ab31606, Abcam, 1:2000), anti-α-tubulin (B-5-1-2, Sigma-Aldrich, 1:20,000), anti-actin (AC-40, Sigma-Aldrich, 1:20,000). Proteins were detected using horseradish peroxidase (HRP)-conjugated secondary antibodies and visualized with the chemiluminescent HRP substrate (Millipore). Where indicated, immunoblot images were quantified and normalized relative to the α-tubulin or actin levels using the NIH ImageJ software.

[1] = system: corresponding recombinant ligand (recombinant soluble LIGHT and IFNγ); test: immunoprecipitation of ligand-receptor complex from conditioned media of transduced glioma cell lines; assay type: binding; settings: anti-HA immunoprecipitation, immunoblot
Method: The constructs were checked by sequencing. The efficacy of IFNγR1-COMP, DcR3-COMP, Fas-COMP, and COMP to be efficiently secreted by astrocytes and to specifically interact with their respective ligands were evaluated in vitro by immunoprecipitation assays. Glioma cell lines were transduced with vectors encoding IFNγR1-COMP, DcR3-COMP, Fas-COMP, or COMP and conditioned media collected. Recombinant soluble LIGHT and IFNγ were added to different conditioned media. Immunoprecipitation of ligand-receptor complex were performed using anti-hemagglutinin (HA) tag antibody, since these constructs include an HA tag at their C-terminus, and immunocomplexes analysed by SDS-PAGE followed by immunoblotting with antibodies to LIGHT, IFNγR1 and IFNγ.

[2] = system: IFNγ-triggered death of motoneurons; test: AAV-delivered COMP chimeric receptors: rescue of motoneurons from IFNγ-triggered death; assay type: cell-based, mice; settings: AAV vectors; IFNγ 250 ng/ml; survival 48 h later
Method: (§1) FIG. 7 evidences the efficiency of recombinant proteins IFNγR1-COMP, DcR3-COMP, and Fas-COMP (in the form of AAV viral vectors at 1.5×10^5 TU/ml), to interfere with death induced by their respective ligand(s) or cytokine (sFasL (50 ng/ml), sLight (50 ng/ml), IFNγ (250 ng/ml)), in contrast to the negative control (COMP). Cell survival was determined 48 h later as described in Example 4. All values are expressed as the means±S.D of three independent experiments.
(§2) The functionality of the dominant negatives in inhibiting Fas and LIGHT/IFNγ-induced death was evaluated in an isolated motoneurons culture system as described in Example 2. Embryonic motoneurons isolated from spinal cords of E12.5 CD1 mice were cultured for 6 h and then infected with 50 TU/ml of indicated with AAV-IFNγR1-COMP, AAV-DcR3-COMP, AAV-Fas-COMP, or AAV-COMP viral vectors. After 6 h of incubation the culture medium was replaced and motoneurons were treated 48 h later (when indicated) with effective doses of either sFasL (50 ng/ml), sLight (50 ng/ml) or IFNγ (250 ng/ml). Forty-eight hours later, survival was determined by direct counting of motoneurons (FIG. 7). […] On the other hand, IFNγ-triggered death was blocked by IFNγR1-COMP.

[3] = system: sLIGHT-induced death of motoneurons; test: AAV-delivered COMP chimeric receptors: rescue of motoneurons from sLIGHT-induced death; assay type: cell-based, mice; settings: AAV vectors; sLight 50 ng/ml; survival 48 h later
Method: as §1, §2

[4] = system: sFasL-induced death of motoneurons; test: AAV-delivered COMP chimeric receptors: rescue of motoneurons from sFasL-induced death; assay type: cell-based, mice; settings: AAV vectors; sFasL 50 ng/ml; survival 48 h later
Method: as §1, §2

B1: IFNγ: Soluble mouse recombinant IFNγ (Calbiochem; PBL Biomedical laboratories) (protein, UniProt P01580 23-155, looked up)
Interferon gamma: HGTVIESLESLNNYFNSSGIDVEEKSLFLDIWRNWQKDGDMKILQSQIISFYLRLFEVLKDNQAISNNISVIESHLITTFFSNSKAKKDAFMSIAKFEVNNPQVQRQAFNELIRVVHQLLPESSLRKRKRSRC
LIGHT
  expression levels of LIGHT: significantly enhancing
motoneurons; compared with cortical, hippocampal, sensory and striatal neurons
  cell-type restriction of the synergistic lethal effect of IFNγ on LIGHT-induced death: restricted to motoneurons
motoneurons; cultured motoneurons, survival 48 h after treatment
  death of motoneurons: about 50%
motoneurons; motoneurons
  effect on sFasL-induced death: no effect
motoneurons; suboptimal dose of sLIGHT and increasing doses of IFNγ
  effect on LIGHT killing effect: substantially enhances
motoneurons; treated at 0, 24 or 72 h, IFNγ combined with sLIGHT or anti-LT-βR antibodies
  responsiveness of freshly isolated motoneurons to sLIGHT or agonistic anti-LT-βR antibodies: responsive to sLIGHT or agonistic anti-LT-βR antibodies

B2: IFNγR1-COMP: Extracellular part of IFNγR1 fused to COMP, HA-tagged (SEQ ID NO: 15), expressed from AAV vector (protein)
chain: MGPQAAAGRMILLVVLMLSAKVGSGALTSTEDPEPPSVPVPTNVLIKSYNLNPVVCWEYQNMSQTPIFTVQVKVYSGSWTDSCTNISDHCCNIYGQIMYPDVSAWARVKAKVGQKESDYARSKEFLMCLKGKVGPPGLEIRRKKEEQLSVLVFHPEVVVNGESQGTMFGDGSTCYTFDYTVYVEHNRSGEILHTKHTVEKEECNETLCELNISVSTLDSRYCISVDGISSFWQVRTEKSKDVCIPPFHDDRKERPQPQPQPKPQPKPEPEGDLAPQMLRELQETNAALQDVRELLRHRVKEITFLKNTVMECDACGYPYDVPDYA
modifications: HA tag; AAV-expressed; amino acid sequence of mouse IFN gamma R1-cartilage oligomeric matrix protein chimera
[1]
  interaction with corresponding recombinant ligand (immunoprecipitation): effectively interact
[2]
  rescue of motoneurons from IFNγ-triggered death: blocked

B3: DcR3-COMP: Extracellular part of DcR3 fused to COMP (SEQ ID NO: 17), decoy for both FasL and LIGHT, AAV-expressed (protein)
chain: MRALEGPGLSLLCLVLALPALLPVPAVRGVAETPTYPWRDAETGERLVCAQCPPGTFVQRPCRRDSPTTCGPCPPRHYTQFWNYLERCRYCNVLCGEREEEARACHATHNRACRCRTGFFAHAGFCLEHASCPPGAGVIAPGTPSQNTQCQPCPPGTFSASSSSSEQCQPHRNCTALGLALNVPGSSSHDTLCTSCTGFPLSTRVPGAEECERAVIDFVAFQDISIKRLQRLLQALEAPEGWGPTPRAGRAALQLKLRRRLTELLGAQDGALLVRLLQALRVARMPGLERSVRERFLPVHPQPQPKPQPKPEPEGDLAPQMLRELQETNAALQDVRELLRHRVKEITFLKNTVMECDACGYPYDVPDYA
modifications: AAV-expressed; Sequence for chimeric protein DcR3-COMP
[3]
  rescue of motoneurons from sLIGHT-induced death: rescued
[1]
  interaction with corresponding recombinant ligand (immunoprecipitation): effectively interact
[4]
  rescue of motoneurons from sFasL-induced death: rescued

B4: COMP: negative control generated by deleting approximately 80% of the extra-cellular part of Fas (secreted COMP) (protein)
chain: PQPQPKPQPKPEPEGDLAPQMLRELQETNAALQDVRELLRHRVKEITFLKNTVMECDACGYPYDVPDYA
modifications: amino acid sequence of a coiled-coil domain of cartilage oligomeric matrix protein
[3]
  rescue of motoneurons from sLIGHT-induced death: did not interfere
[2]
  rescue of motoneurons from IFNγ-triggered death: did not interfere
[4]
  rescue of motoneurons from sFasL-induced death: did not interfere
